B1: anti-HIV-1 antibody #A (antibody, V domains shown)
VH: EVKLVESGGGLVKPGGSLQLSCVASGFTFSSYAMSWVRQTPEKGLEWVASITSGGNTYYPDSVKGRFTISRDNAGNILYLQMSSLRSEDTAMFYCAREVLSVPFAYWGQGTLVTVST
VL: DIQMTQTTSSLSASLGDRVTINCRASQDISNYLHWYQQKPDGTVKLLIYYTSRLHSGVPSRFSGSGSGTDYSLTISNLEKEDIATYFCQQGNSFPWTFGGGTKVEIKR
notes: recombinant, expressed in CHO cells; also called mAb A
B2: anti-HIV-1 antibody #B (antibody, V domains shown)
VH: EVQLVESGGGLVKPGGSLKLSCAASGFAFSSYDMSWVRQTPDKRLEWVAYITSGVGNLNYLDTVKGRFTISRDNAKNTLYLQMSSLRSEDTAMYFCLRPPSYFGSSYDAMDYWGRGTSVTVSS
VL: DIVLTQSPATLSVTPGDSVSLSCRASQSISDNLHWYRQKSHESPRLLIKYSSQSISGIPSRFSGSGSGTDFTLSINSVETEDFGMYFCQQSNSWPFTFGSGTNLELKR
notes: recombinant, expressed in CHO cells; also called mAb B
B3: anti-HIV-1 antibody #D (antibody, V domains shown)
VH: QIQLQQSGPELVKPGASVKVSCKASGYAFTSYQLYWVKQSHGKSLEWIGYIDPYNGGTGYNQKFKGKATLTVDKSSSTAYMHLNSLTSEDSAVYYCASPRWLPAGDYWGQGTSVTVSS
VL: DVVMTQTPLSLPVSLGDQASISCRSSQSLVNSDGNTFLQWLLQKPGQSPKLLIYKVSNRFSGVPDRFSGSGSGTDFTLRISRVEAEDLGVYFCSQSTHVPWTFGGGTKLEIKR
notes: recombinant, expressed in CHO cells; also called mAb D; monoclonal antibody D

Key:
HIV-1 p24 protein [1] = target: T1, HIV-1 p24 protein (HIV-1, UniProt P03349 135-365); test: BLI, antibody captured on anti-mouse Fc biosensors, 1:1 model
T1 construct: also called HIV-1 p24 antigen; HIV-p24

HIV-1 p24 protein [2] = target: T1, HIV-1 p24 protein; test: indirect ELISA on HIV-1 p24, OD 405 nm, antibody titrated 1:10 from 2 µg/mL (no unit beside the EC50; taken from the x axis, p24 Antibody [ng/mL])

Row | Binder | Kd (HIV-1 p24 protein [1]) [nM] | koff (HIV-1 p24 protein [1]) [s⁻¹] | kon (HIV-1 p24 protein [1]) [M⁻¹ s⁻¹] | EC50 (HIV-1 p24 protein [2]) [ng/mL]
1 | B1 | 0.2 | 5.9e-05 | 241000 | 3.6
2 | B2 | < 0.00024 | < 1e-07 | 408000 | 76.7
3 | B3 | < 0.00052 | < 1e-07 | 194000 | 8.41

— patent US20240239876A1 (GRIFOLS DIAGNOSTIC SOLUTIONS, published 2024)
